The values below come from PMC5629210.

The target in this experiment is SRGAP1 (UniProt Q7Z6B7). Description: GFP-trap of SRGAP1-GFP, blot for cortactin-mCherry. The following applies: reference: wild type cortactin-mCherry; sites Y421,Y470,Y486.

On to “cortactin (from UniProt Q14247) 3YF cortactin-mCherry”, for which the “binding against the reference” value was “stronger”.
